Data on two substances can be found in patent US20250243261A1.

For test [1], the target named is SARS-CoV-2 Wuhan Spike on pseudotyped lentivirus (SARS-CoV-2 Wuhan-Hu-1) (UniProt P0DTC2). Briefly: cell-based or functional assay.
Test [2] deals with HA H4 Hubei, A/swine/Hubei/06/2009(H4N1) (Influenza A virus). Briefly: BLI, Fab.
Test [3] addresses HA H7 HK17, A/Hong Kong/125/2017(H7N9) (Influenza A virus). Briefly: BLI, Fab.

pKd: −log10 of the molar value.

Chain of LY-1404 WT IgG (antibody) (VH): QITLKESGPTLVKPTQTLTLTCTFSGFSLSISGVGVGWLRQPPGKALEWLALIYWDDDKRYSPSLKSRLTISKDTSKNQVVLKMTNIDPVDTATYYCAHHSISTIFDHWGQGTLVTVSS
Chain of LY-1404 WT IgG (antibody) (VL): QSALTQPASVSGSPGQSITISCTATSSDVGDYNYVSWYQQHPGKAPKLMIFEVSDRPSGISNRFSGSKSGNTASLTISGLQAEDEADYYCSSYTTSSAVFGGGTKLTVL

Regarding LY-1404 WT IgG (antibody), the Wuhan pseudotyped lentivirus IC50 in test [1] turned out to be 3.1 µg/mL.

Consider MEDI8852 WT Fab, for which the values for the negative-log Kd (pKd) in test [2] and in test [3] were 9.25 and 9.70, respectively.
